In patent publication US20260234211A1 (GUANGDONG RAYNOVENT BIOTECH, published 2026):
Bridge positions count the residues as written; N and C are the ends. Square brackets hold non-standard residues; d marks the D form. Ends that are not written are not given here. Aib = CC(C)(N)C(=O)O

How the values were obtained:
Assay in all cases: cell-based or functional assay
[1] = molecular target: GLP-1 receptor (GLP-1R)
[2] = molecular target: GCG receptor (GCGR)
[3] = molecular target: T1, GIP receptor (GIPR)
T1 sequence (P48546 whole entry, species assumed, looked up): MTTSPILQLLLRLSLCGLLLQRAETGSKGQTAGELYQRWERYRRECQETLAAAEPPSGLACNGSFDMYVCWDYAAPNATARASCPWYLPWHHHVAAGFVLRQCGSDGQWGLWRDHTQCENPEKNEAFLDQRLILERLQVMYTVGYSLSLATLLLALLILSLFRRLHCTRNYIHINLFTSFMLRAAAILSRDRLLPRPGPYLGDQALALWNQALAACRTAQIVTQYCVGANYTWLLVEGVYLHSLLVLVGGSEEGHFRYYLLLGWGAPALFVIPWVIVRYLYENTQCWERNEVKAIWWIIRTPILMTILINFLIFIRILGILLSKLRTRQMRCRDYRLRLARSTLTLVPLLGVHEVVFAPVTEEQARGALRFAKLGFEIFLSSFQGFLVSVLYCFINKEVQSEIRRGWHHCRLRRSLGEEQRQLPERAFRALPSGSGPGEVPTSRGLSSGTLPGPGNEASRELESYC

B1: Example 4 (peptide)
peptide: H[Aib]HGTFTSDYSIYLEKKYA[Aib]EFVKWLLKGGPSSGAPPPS-NH2
modifications: bridge 24-28; not fully specified (residues 24, 28, bridges); also: staple structure only in drawing
Question: How did the “GLP-1 EC50 (nM), cAMP assay on HEK293 cells with GLP-1R” value [1] turn out when B1 was run?
Answer: 0.023 nM

Question: What about the “GCG EC50 (nM), cAMP assay on HEK293 cells with GCGR” value [2] of the same binder?
Answer: 0.143 nM

Question: What about the “GIP-1 EC50 (nM), cAMP assay on CHO cells with GIPR” value [3] of the same binder?
Answer: 0.016 nM

B2: Example 5 (peptide)
peptide: H[Aib]HGTFTSDYSIYLEKKYA[Aib]KFVQWLLEGGPSSGAPPPS-NH2
modifications: bridge 17-21; not fully specified (residues 17, 21, bridges); also: staple structure only in drawing
Question: Which results are given for B2?
Answer: GLP-1 EC50 (nM), cAMP assay on HEK293 cells with GLP-1R [1]: 0.029 nM; GCG EC50 (nM), cAMP assay on HEK293 cells with GCGR [2]: 0.012 nM; GIP-1 EC50 (nM), cAMP assay on CHO cells with GIPR [3]: 0.007 nM
